Publication PMC5866196

B1: PCSK9A1-DNA (ssDNA)
DNA: CGAATCAGATTGGACCAGCCACTATATTCTCTCTCCTACCGTTTGCCTTTGCATCACCTTCTGGAGTCCAGATGTAGGTAG
modifications: no side-chains
B2: PCSK9A4-DNA (ssDNA)
DNA: CGAATCAGATTGGACCAGCCCCAATGCTTTTCGTTTCTATCACGTCTTTAGCGGTACCTATTCGAGTCCAGATGTAGGTAG
modifications: no side-chains
B3: PCSK9A6-DNA (ssDNA)
DNA: CGAATCAGATTGGACCAGTTTCAACCTCTTCTGCCTTCTCCACGGCTCCTTCTGCGTTGTTCCGAGTCCAGATGTAGGTAG
modifications: no side-chains
B4: PCSK9A3-DNA (ssDNA)
DNA: CGAATCAGATTGGACCAGTCTCTACAACCTCTTTCATGTCTTTAGCACTACTTATCCTGATCAGAGTCCAGATGTAGGTAG
modifications: no side-chains
B5: PCSK9A2-DNA (ssDNA)
DNA: CGAATCAGATTGGACCAGCAACAATGATTCTTCTACCGTTTTTGCCCTCACCTTCTGCGCTGAGAGTCCAGATGTAGGTAG
modifications: no side-chains
B6: PCSK9A7-DNA (ssDNA)
DNA: CGAATCAGATTGGACCAGTCTTCCCTATTCCTCTACCGTTTGTTCTCTTACTTTCACCTTCTGGAGTCCAGATGTAGGTAG
modifications: no side-chains
B7: PCSK9A5-DNA (ssDNA)
DNA: CGAATCAGATTGGACCAGCCACGTTACTGATTCTTCTACCGTTTTTGCCCCCGGCACCTTCTGGAGTCCAGATGTAGGTAG
modifications: no side-chains

These binders were tested against PCSK9 (UniProt Q8NBP7 31-692) (assay: bead retention).
PCSK9, sequence (Q8NBP7 31-692): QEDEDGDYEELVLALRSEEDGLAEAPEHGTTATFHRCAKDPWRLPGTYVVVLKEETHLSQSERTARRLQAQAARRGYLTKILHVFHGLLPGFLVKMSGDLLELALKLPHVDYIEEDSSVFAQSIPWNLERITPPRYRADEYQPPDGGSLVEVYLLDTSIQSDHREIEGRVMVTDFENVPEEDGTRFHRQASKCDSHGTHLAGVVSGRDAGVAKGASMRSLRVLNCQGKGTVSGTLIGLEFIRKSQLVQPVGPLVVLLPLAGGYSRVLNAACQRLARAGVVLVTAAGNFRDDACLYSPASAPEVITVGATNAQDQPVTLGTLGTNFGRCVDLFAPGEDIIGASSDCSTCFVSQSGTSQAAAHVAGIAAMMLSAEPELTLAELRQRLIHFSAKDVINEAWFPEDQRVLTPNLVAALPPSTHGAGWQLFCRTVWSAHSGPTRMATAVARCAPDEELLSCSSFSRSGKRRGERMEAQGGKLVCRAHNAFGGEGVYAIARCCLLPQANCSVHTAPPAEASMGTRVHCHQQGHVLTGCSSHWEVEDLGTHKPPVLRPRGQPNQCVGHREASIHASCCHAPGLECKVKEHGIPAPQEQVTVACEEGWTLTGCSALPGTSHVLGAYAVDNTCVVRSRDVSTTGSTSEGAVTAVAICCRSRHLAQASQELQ

Binding result, no binding:
B1
B2
B3
B4
B5
B6
B7
